Results on 3 molecules are retold here after patent US20200181263A1 (NUMAB THERAPEUTICS, published 2020).

In experiment [1] the target is T1, human IL23R IL12Rbeta 1 heterodimer on CHO-K1 cells (human, UniProt Q5VWK5 24-629; P42701 24-662). In words: cell-based or functional assay.
Experiment [2] addresses T1, human IL23R IL12Rbeta 1 heterodimer on …. Description: cell-based or functional assay. This is another data set of the same source.
For experiment [3], the target named is T2, human CD3 gamma-epsilon single-chain (human, UniProt P09693 23-103; P07766 23-118).
T2 construct: Recombinant protein immobilised on the SPR chip
Description: SPR, target immobilised by amine coupling, binder as analyte.

Experiment [4] has as its target T3, cyno CD3 (cyno, UniProt Q95LI5 22-117).
T3 sequence (looked up): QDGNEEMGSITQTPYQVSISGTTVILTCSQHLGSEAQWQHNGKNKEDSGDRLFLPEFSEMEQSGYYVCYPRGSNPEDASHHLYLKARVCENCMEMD
The description is as above.

For experiment [5], the target named is T4, human serum albumin (human, UniProt P02768 25-609).
T4 construct: also called HSA
Described as above.

The target in experiment [6] is T5, human IL-23 receptor ECD (human, UniProt Q5VWK5 24-355).
T5 construct: extracellular domain
T5 sequence (looked up): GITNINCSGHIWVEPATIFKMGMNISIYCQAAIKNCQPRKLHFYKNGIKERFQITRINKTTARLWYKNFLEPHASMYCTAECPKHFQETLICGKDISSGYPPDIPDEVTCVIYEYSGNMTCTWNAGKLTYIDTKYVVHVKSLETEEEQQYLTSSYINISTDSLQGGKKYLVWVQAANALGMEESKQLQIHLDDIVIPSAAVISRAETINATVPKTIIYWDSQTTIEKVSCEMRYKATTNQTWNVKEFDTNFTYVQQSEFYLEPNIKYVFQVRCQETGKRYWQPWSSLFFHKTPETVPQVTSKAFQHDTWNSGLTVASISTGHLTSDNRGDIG
The experiment is described as above.

B1: PRO746 (MATCH) (other)
chain 1: DIQMTQSPSSLSASVGDRVTITCQASENIYSFLAWYQQKPGKAPKLLIYSASKLAAGVPSRFSGSGSGTDFTLTISSLQPEDFATYYCQQTNRYSNPDIYNVFGTGTKVTVLGGGGGSGGGGSGGGGSGGGGSEVQLVESGGGLVQPGGSLRLSCAASGIDFNSNYYMCWVRQAPGKGLEWIGCIYVGSHVNTYYANWAKGRFTISRDNSKNTVYLQMNSLRAEDTAVYYCATSGSSVLYFKFWGQGTLVTVSSGGGGSGGGGSDIQMTQSPSSLSASVGDRVTITCQSSQSVFSNNYLAWFQQKPGQSPKRLIYSASTLASGVPSRFSGSGSGTDFTLTISSLQPEDFATYYCLGSYACSSADCYVFGCGTKVTVLGEPEPEPEPEPEPEPDIQMTQSPSSLSASVGDRVTITCQSSESVYSNNQLSWYQQKPGQPPKLLIYDASDLASGVPSRFSGSGSGTDFTLTISSLQPEDFATYYCAGGFSSSSDTAFGGGTKLTVLG
chain 2: DIQMTQSPSSLSASVGDRVTITCQASENIYSFLAWYQQKPGKAPKLLIYSASKLAAGVPSRFSGSGSGTDFTLTISSLQPEDFATYYCQQTNRYSNPDIYNVFGTGTKVTVLGGGGGSGGGGSGGGGSGGGGSEVQLVESGGGLVQPGGSLRLSCAASGIDFNSNYYMCWVRQAPGKGLEWIGCIYVGSHVNTYYANWAKGRFTISRDNSKNTVYLQMNSLRAEDTAVYYCATSGSSVLYFKFWGQGTLVTVSSGGGGSGGGGSEVQLVESGGGLVQPGGSLRLSCAASGFSLSSNAMGWVRQAPGKGLEYIGIISVGGFTYYASWAKGRFTISRDNSKNTVYLQMNSLRAEDTATYFCARDRHGGDSSGAFYLWGQGTLVTVSSKPKPKPKPKPKPKPEVQLVESGGGLVQPGGSLRLSCAASGFSLSSYDMSWVRQAPGKCLAWIGASYASGPTYYASWAKGRFTISRDNSKNTVYLQMNSLRAEDTATYFCARGGWTGTSHSNIWGQGTLVTVSS
notes: Hetero-dimeric MATCH, anti-parallel, two anti-IL23R scFv modules on a CD3/HSA core; interchain disulfide in the anti-CD3 VL/VH interface; charged core linkers; also called MATCH-4 anti-TAA2xCD3xHSA; heterodimeric MATCH
One may read the Kd as the free concentration of one partner at which half of the binding sites on the other are occupied at equilibrium, for simple one-to-one binding. As to B1, the “EC50 of T-cell activation (NFAT reporter, with HSA), 5 h” value in experiment [1] is 266000 nM. The “EC50 of T-cell activation (NFAT reporter, with HSA), 30 h” value in experiment [1] was 102000 nM. Further, the “NFAT assay EC50 (T-cell activation, 5 h)” value in experiment [2] was determined as 0.19 nM. The Kd was 3.52 nM in experiment [3], 3.19 nM in experiment [4], 0.141 nM in experiment [5] and 0.0249 nM in experiment [6].

B2: PRO738 (other)
chain 1: DIQMTQSPSSLSASVGDRVTITCQASENIYSFLAWYQQKPGKAPKLLIYSASKLAAGVPSRFSGSGSGTDFTLTISSLQPEDFATYYCQQTNRYSNPDIYNVFGTGTKVTVLGGGGGSGGGGSGGGGSGGGGSEVQLVESGGGLVQPGGSLRLSCAASGIDFNSNYYMCWVRQAPGKGLEWIGCIYVGSHVNTYYANWAKGRFTISRDNSKNTVYLQMNSLRAEDTAVYYCATSGSSVLYFKFWGQGTLVTVSSGGGGSGGGGSDIQMTQSPSSLSASVGDRVTITCQSSQSVFSNNYLAWFQQKPGQSPKRLIYSASTLASGVPSRFSGSGSGTDFTLTISSLQPEDFATYYCLGSYACSSADCYVFGCGTKVTVLGGGGGSGGGGSGGGGSDIQMTQSPSSLSASVGDRVTITCQSSESVYSNNQLSWYQQKPGQPPKLLIYDASDLASGVPSRFSGSGSGTDFTLTISSLQPEDFATYYCAGGFSSSSDTAFGGGTKLTVLG
chain 2: DIQMTQSPSSLSASVGDRVTITCQASENIYSFLAWYQQKPGKAPKLLIYSASKLAAGVPSRFSGSGSGTDFTLTISSLQPEDFATYYCQQTNRYSNPDIYNVFGTGTKVTVLGGGGGSGGGGSGGGGSGGGGSEVQLVESGGGLVQPGGSLRLSCAASGIDFNSNYYMCWVRQAPGKGLEWIGCIYVGSHVNTYYANWAKGRFTISRDNSKNTVYLQMNSLRAEDTAVYYCATSGSSVLYFKFWGQGTLVTVSSGGGGSGGGGSEVQLVESGGGLVQPGGSLRLSCAASGFSLSSNAMGWVRQAPGKGLEYIGIISVGGFTYYASWAKGRFTISRDNSKNTVYLQMNSLRAEDTATYFCARDRHGGDSSGAFYLWGQGTLVTVSSGGGGSGGGGSGGGGSEVQLVESGGGLVQPGGSLRLSCAASGFSLSSYDMSWVRQAPGKCLAWIGASYASGPTYYASWAKGRFTISRDNSKNTVYLQMNSLRAEDTATYFCARGGWTGTSHSNIWGQGTLVTVSS
notes: Hetero-dimeric MATCH, anti-parallel; diS in anti-CD3 domain, 15 aa GS-linker
Regarding B2, in experiment [2], the “NFAT assay EC50 (T-cell activation, 5 h)” value amounted to 0.423 nM. Further, the dissociation constant Kd came out at 10.1 nM in experiment [3], 8.48 nM in experiment [4], 0.303 nM in experiment [5] and 0.0337 nM in experiment [6].

B3: PRO734 (other)
chain 1: DIQMTQSPSSLSASVGDRVTITCQASENIYSFLAWYQQKPGKAPKLLIYSASKLAAGVPSRFSGSGSGTDFTLTISSLQPEDFATYYCQQTNRYSNPDIYNVFGTGTKVTVLGGGGGSGGGGSGGGGSGGGGSEVQLVESGGGLVQPGGSLRLSCAASGIDFNSNYYMCWVRQAPGKGLEWIGCIYVGSHVNTYYANWAKGRFTISRDNSKNTVYLQMNSLRAEDTAVYYCATSGSSVLYFKFWGQGTLVTVSSGGGGSGGGGSDIQMTQSPSSLSASVGDRVTITCQSSQSVFSNNYLAWFQQKPGQSPKRLIYSASTLASGVPSRFSGSGSGTDFTLTISSLQPEDFATYYCLGSYACSSADCYVFGCGTKVTVLGSGGGGSGGGGSDIQMTQSPSSLSASVGDRVTITCQSSESVYSNNQLSWYQQKPGQPPKLLIYDASDLASGVPSRFSGSGSGTDFTLTISSLQPEDFATYYCAGGFSSSSDTAFGGGTKLTVLG
chain 2: DIQMTQSPSSLSASVGDRVTITCQASENIYSFLAWYQQKPGKAPKLLIYSASKLAAGVPSRFSGSGSGTDFTLTISSLQPEDFATYYCQQTNRYSNPDIYNVFGTGTKVTVLGGGGGSGGGGSGGGGSGGGGSEVQLVESGGGLVQPGGSLRLSCAASGIDFNSNYYMCWVRQAPGKGLEWIGCIYVGSHVNTYYANWAKGRFTISRDNSKNTVYLQMNSLRAEDTAVYYCATSGSSVLYFKFWGQGTLVTVSSGGGGSGGGGSEVQLVESGGGLVQPGGSLRLSCAASGFSLSSNAMGWVRQAPGKGLEYIGIISVGGFTYYASWAKGRFTISRDNSKNTVYLQMNSLRAEDTATYFCARDRHGGDSSGAFYLWGQGTLVTVSSSGGGGSGGGGSEVQLVESGGGLVQPGGSLRLSCAASGFSLSSYDMSWVRQAPGKCLAWIGASYASGPTYYASWAKGRFTISRDNSKNTVYLQMNSLRAEDTATYFCARGGWTGTSHSNIWGQGTLVTVSS
notes: Hetero-dimeric MATCH, anti-parallel; diS in anti-CD3 domain, 11 aa GS-linker
Turning to B3, the “NFAT assay EC50 (T-cell activation, 5 h)” value in experiment [2] stood at 46.8 nM. In addition, the Kd was found to be 11.9 nM in experiment [3], 10.2 nM in experiment [4], 0.482 nM in experiment [5] and 0.036 nM in experiment [6].
